Literature values as cited in paper PMC8698604.
Where two headings read alike, the source gives them in different places. Values belong to the substance of their own block, whether it stands above or below them.

Tests used:
t-PA (Homo sapiens) [1] = target: t-PA (Homo sapiens) (UniProt P00750)
plasmin (Homo sapiens) [2] = target: plasmin (Homo sapiens) (UniProt P00747)
[3] = target: plasminogen (Homo sapiens) (UniProt P00747)
[4] = target: plasminogen (Homo sapiens) (UniProt P00747); assay: fluorescence
plasmin (Homo sapiens) [5] = target: plasmin (Homo sapiens) (UniProt P00747); remark: listed apart in the source
t-PA (Homo sapiens) [6] = target: t-PA (Homo sapiens) (UniProt P00750); remark: listed apart in the source
plasmin (Homo sapiens) [7] = target: plasmin (Homo sapiens) (UniProt P00747); remark: listed apart in the source
[8] = target: plasminogen (Homo sapiens) (UniProt P00747); remark: listed apart in the source
fibrin (Homo sapiens) [9] = target: fibrin (Homo sapiens) (UniProt P02671)
fibrin (Homo sapiens) [10] = target: fibrin (Homo sapiens) (UniProt P02671); remark: listed apart in the source

UniProt P00750, sequence (P00750 36-562): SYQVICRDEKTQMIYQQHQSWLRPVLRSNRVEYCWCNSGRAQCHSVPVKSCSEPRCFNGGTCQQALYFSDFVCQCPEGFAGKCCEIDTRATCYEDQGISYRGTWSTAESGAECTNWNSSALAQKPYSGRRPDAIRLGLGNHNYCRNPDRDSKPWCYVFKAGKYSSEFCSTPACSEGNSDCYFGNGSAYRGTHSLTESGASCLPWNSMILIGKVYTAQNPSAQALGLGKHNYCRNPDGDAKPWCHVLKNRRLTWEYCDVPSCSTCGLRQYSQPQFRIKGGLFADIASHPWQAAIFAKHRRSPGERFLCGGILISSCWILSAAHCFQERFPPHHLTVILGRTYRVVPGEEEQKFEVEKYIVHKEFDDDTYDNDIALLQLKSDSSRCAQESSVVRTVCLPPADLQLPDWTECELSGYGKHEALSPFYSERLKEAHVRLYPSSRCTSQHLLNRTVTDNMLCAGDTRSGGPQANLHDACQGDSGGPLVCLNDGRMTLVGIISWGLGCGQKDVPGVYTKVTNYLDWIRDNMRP

- Kd (t-PA (Homo sapiens) [1]): 680 nM
- Kd (plasmin (Homo sapiens) [2]): 75 nM
- Kd [3]: 110 nM
- Kd [4]: 1000 nM
Substance: AIIt (ANXA2/S100A10) (from UniProt P07355)

- Kd (plasmin (Homo sapiens) [5]): 780 nM
Substance: ANXA2 (from UniProt P07355)

- Kd (t-PA (Homo sapiens) [6]): 450 nM
- Kd (plasmin (Homo sapiens) [7]): 360 nM
- Kd [8]: 1810 nM
Substance: S100A10 (from UniProt P60903)

- Kd (fibrin (Homo sapiens) [9]): 300 nM
- Kd (fibrin (Homo sapiens) [10]): 30000 nM
Substance: plasminogen (from UniProt P00747)
